Measurements reported in the nanobody polyreactivity screen of Harvey et al. (2022).

Experiment: yeast display, Sf9 membrane polyspecificity reagent, FACS + sequencing; frameworks hold sequencing errors
How it was run: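 In a synthetic yeast display library (Saccharomyces cerevisiae BJ5465), nanobody expression was induced with galactose for 36–48 hours. FACS gates were set low and high (top ~1%) using anti-HA fluorescence for expression and streptavidin fluorescence for binding of the Sf9 membrane reagent. Each polyreactivity label is drawn from the gate of origin.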

Sequence | polyreactivity (PSR sort gate)
QVQLVESGGGLVQAGGSLRLSCAASGFIFSGNAMGWYRQAPGKERELVARIRSGDRTYYADSVKGRFTISRDNAKNTVYLQMNSLKPEDTAVYYCAAYAWYDWRSYFPILGYEYWGQGTQVTVSS | low polyreactivity
QVQLVESGGGLVQAGGSLRLSCAASGIIFDYYAMGWYRQAPGKERELVAAITTAGSTYYADSVKGRFTISRDNAKNTVYLQLNSLNPEDTAVYYCDAYLYSVRLGSYGYWGQGTQVTVSS | high polyreactivity
QVQLVESGGGLVQAGGSLRLSCAASGRIFHYYAMGWYRQAPGKERELVAAITSSGGSTYYADSVKGRFTISRDNAKNTVYLQMNSLKPEDTAVYYCAAGLIVGRFLRYDYWGQGTQVTVSS | high polyreactivity
QVQLVESGVGLVQAGGSLRLSCAASGSTFPKNVMGWYRQAPGKERELVAAINYSGTSTYYADSVKGRFTISRDNAKNTVYLQMNSLKPEDTAVYYCAARFPLVRYNYWGQGTQVTVSS | high polyreactivity
QVQLVESGGGLVQAGGSLRLSCAASGSTFYYYAMGWYRQAPGKERELVASITTGGGSTYYADSVKGRFTISRDNAKNTFYLEMNSLKPEDTAVYYCAAALSYYFWWYDYLGQGTQVTVSS | low polyreactivity
QVQLVESGGGLVQGGGSLRLSCAASGRTFQTNVMGWYRPAPGKERELVAAITLSGGSTNYADSVKGRFTISRDNAKNTVYVQMNSLKPEDTAVYYCNAERRYRHQWTPHYEYDYWGQGTQVSVSS | low polyreactivity
QVQLVESGGGLVQAGGSLRLSCAASGLTFYGYGMGWYRQAPGKERELVASITSGGNTYYADSVKGRFTISRDNAKNTVYLQMNSLKPEDTAVYYCNADDGGPGVVLPTKEYDYWGQGTQVTVSS | low polyreactivity
QVQLVESGGGLVQAGGSLRLSCAASGYTFRYYAMGWYRQAPGKERELVARITGRAGSTYYADSVKGRFTISRDNAKNTVYLQMNSLKPEDTAVYYCAASIREGFYWGQGTQVTVSS | high polyreactivity
QVQLVESGGGLVQAGGSLRFSCAASGYTVGDYAMGSYRQAPGKERELVAVITRNGGRTYYADSVKGRFTISRDNAKNTVYLQMNSLKPEDTAVYYCNRDTSIRHYNYWGQGTQVTVSS | high polyreactivity
QVQLVESGGGLVQAGGSLRLSCAASGSIFGYYAMGWYRPATGKEREFVAAITSSGGSTYYADSVKGRFTISRDNAKNTVYLQMNSLKPEDTAVYYCNAGAWQLYWYRYEYWGQGTQVTVSS | high polyreactivity
QVQLVESGGGLVQAGGSLRLSCAASGRTFYKYAMGWYRQAPGKERELVAAISSRGGRTYYADSVKGRFTISRDNAKNTVYLQMNSLKPEDTAVYYCAAKGRPDGKYDYWGQGTQVTVSS | high polyreactivity
QVQLVESGGGLVQAGRSLRLSCAASGSTLQDNAMGWYRQAPGKERELVAAITLNGGSTYYADSVKRRFTISRDHAKNTVYLPMNSLKPEDTAVYYCAAEYLYVGYWFDYWGQGTQVTVSS | high polyreactivity
QVQLVESGGGLVQAGGSLRLSCAASGSTFHSNAMGWYRQAPGKERELVAAISQGGGRTYYADSVKGRFSISRDNAKNTVYLQMNSLKPEDTAVYYCNRRTRGLIDGGMDYWGQGTQGTVSS | low polyreactivity
QVQLVESGGGLVQAGGSLRLSCAASGSIFVRNGMGWYRQAPGKERELVASFTSGTITYYADSVKGRFTISRDNARNTVYLQMNRLKPDDTAVYYCAARRDRGRVKFYYWGQGTQVTVSS | high polyreactivity
QVQLVESGGGLVQAGGSLRLSSAASGFIFGSNAMGWYRQAPGKERELVAAISRSGGSTYYADSVKGRFTISRDNAKNTVYLQMNSLKPEDTAVYYCASYLYKSRYLPEYDYWGQGTQVTVSS | high polyreactivity
QVQLVESGGGLVQAGGSLRLSCAASGSIFSGNTMGWYRQAPGKERELVAAISKSGGSTYYADSVKGRFTISRDNAKNTVYLQINSLKPEDTAVYYCAVRIRSRVANPGYRWGFNYWGQGTQVTVSS | high polyreactivity
QVQLVESGGGLVHAGGSLRLSCADSGRIIGINAMGCYRQAPGKERELVAAINWSGGSTYYADSVKGRFTISRDNAKNTVYLQMNSLKPEDTAVYYCAAQKYKRVGYWGLGTQVTVSS | high polyreactivity
QVQLVESGGGLVQAGGSLRLSCAASGSIFRRNAMGWYRQAPGKERELVATITSDGSTDYADSVKGRFTISRDNAKNTVYLQMNSLKPEDTAVYYCAADRGVYDPGDYWGQGTQVTVSS | low polyreactivity
QVQLLESGGGLVQAGGSLRLSCAASGSTLARYTMGWSRQAPGKERELVATIDFGGVNTYYADSVKGRFTISRDNAKNTVYLQMNSLKPEDTAVYYCAVDNPFIWFFGPDEYWGQGTQVTVSS | low polyreactivity
QVQLVESGGGLVQAGGSLRLSCAASGRTYTYAMGWYRQAPGKERELVAGISRRGGNTYYADSVKGRFTISRDNAKNTVYLQMNSLKPEDTAVYYCAAVSFSASSYTYEYWGQGTQVTVSS | high polyreactivity
QVQLVESGGGLVQAGGSLRLSCAASGFTFRYYAMGWYRQAPGKVRELVASITGGGRTYYADSVKGRFTISRDNAKNTVYLQMNSLKPEDTAVYYCATLVAYRLGSGYDSWGQGTQVTVSS | high polyreactivity
QVQLVESGGGLVQAGGSLRLSCAASGFTFKTYAMGSYRPAPGKEREFVAAISSRGGSTYYSDSVKGRFTISRDNAKNTVYLQMHSLKPEDTAVYYCATATRPRDRYSRYGYWGQGTQVTVSS | high polyreactivity

Sequence | polyreactivity (PSR sort gate)
QVQLVESGGGLVQVGGSLRLSCAASGITLSYYAMGWYRQAPGKEREFVASITVSRTSTYYADSVKGRFTISRDNAKNTVYLQMNSLKPEDTAVYYCAAYAYQYRFSGYGYWGQGTQVTVSS | low polyreactivity
QVQLVESGGGLVQAGGSLRLSCAASGYIFAGNAMGWYRQAPGKERELVAVITRGGRTYYADSVKGRFTISRDNAKNTVYLQMNSLKPEDTAVYYCAKLVSLAGRIYGYWGQGTQVTVSS | high polyreactivity
QVQLVESGGGLVQAGGSLRLSCAASGSIFSYYAMGWYRQAPGKERELVAAISQSGGSTYYADSVKGRFTISRDNAKNTVYLQMNSLKPEDTAVYYCNAVARHTRSKYGSWGQGTQVTVSS | high polyreactivity
QVQLVESGGGLVQAGGSLRLSCAASGRIFPTSTKGWYRQAPGKERELVAAITSGGTTYYADSVKGRVTISRDNAKNTVYLQMNSLKPEDTAVYYCAALRPRRGYYYWGQGTQVTVSS | high polyreactivity
QVQLVESGGGLVQAGGSLRLSCAASGMIFYTYVMGWYRQAPGKEREFVAGISTSGGRTDYADSVKGRFTISRDNAKNTVYLQMNSLKPEDTAVYYCNADYWQWYSYWYDYWGQGTQVTVSS | high polyreactivity
QVQLVESGGGLVQAGGSLRLSCAASGFIFTGYAMGWYRQAPGKERELVAAITRNGGSTYYADSVKGRFTISRDNAKNSVYLQMNSLKPEDTAVYYCAARGNRVSPEYYYWGQGTQVTVSS | high polyreactivity
QVQLVESGGGLVQAGGSLRLSCAASGSIFITYAMGWYIQAPGKERELVTAIRDSGDRTYYADSVKGRFTISRDNAKNTVYLQMNSLKPEDTSVYYCAAVLYSRLYWDRLDYWGQGTQVTVSS | low polyreactivity
QVQLQESGGGLVQAGGSLRLSCAASSNNTTLDVMCWYRQAPGKEREFVASIGSGGITNYADSVKGRFTISRDNAKNTVYLQMNSLKPEDTAVYYCAVLNQAYTDLIYWGQGTQVTVSS | high polyreactivity
QVQLVESGGGLVQAGGSLRLSCAASGFTFYSNAMGWYRQAPGKERELVARITKRGGSTYYADSVKGRFTISRDNAKNTVYLQMNSLKPEDTAVYYCAADDGSDAEYYYWGQGTQVTVSS | high polyreactivity
QVQLVESGGGLVQAGGSLRLSCAASGRIFGTYAMGWYRQAPGKERELVAAITQSGGRTYYADSVKGRFTISRDNAKNTVYLQMNSLKPEDTAVYYCAADSGKRRYGYYYWGQGTQVTVSS | high polyreactivity
QVQLVESGGGLVQAGGSLRLSCAASGYLWYYAMGWYRQSPGKERELVAAICWGGGSTFFADSVKGRFTISRDNAKNTVYLQMNSLKPEDTAVYYCAAVDAVGPTSHAMFYWGQGTQVTGSS | low polyreactivity
QVQLVESGGGLVLAGGRLRLSCAASGSTFGYYAMGWYRQAHGKERELVAAISQGAGRTYYADSVKGRFTISRDNAKNTDYLQMNSLKPEDSAVYYFAASVTVHRWAYGYWGQGTQVTVSS | high polyreactivity
QVQLVESGGGLVQAGGSLRLSCAASGSIFRPNAMGWYRQAPGKERELVAAINTSDDSTYYADSVKGRFTISRDNAKNTVYLQMNSLKPEDTAVYYCASDGVVPGRFFWPAHEYDYWGQGTQVTVSS | low polyreactivity
QVQLVESGGGLVQAGGSLRLTCAASGYIFGVYAMGWYRQAPGKERELVATISSGGSTNYADSVKGRFTISRDNAKNTVYLQMNSLKPEDTAVYYCAAERYWTYYSGFVYGGDNYWGQGTQVTVSS | low polyreactivity
QVQLVESGGGLVQAGGSLRLSCAASGRTFRLYAMGWYRQAPGKERELVAAISGSGGSTYYADSVKGRFTISRDNAKNTVYLQMNSLKPEDTAVYYCATAVHTAILNYWGQGTQVTVSS | low polyreactivity
QVQLVESGGGLVQAGGSLRLSCAASGSIFRKNAMGWYRPAPGKERELVATISGGGSTTYADSVKGRFTISRDNAKNTVYVHMNSLKPEDTAVYYCAARSTWFQLRYGYGGQGTQVTVSS | high polyreactivity
QVQLVESGGGLVQAGGSLRLSCAASGFIFGSYTMGWYRQAPGKERELVAAISSSVGRTYYADSVKGRFTISRDNAKNTVYLQMNSLKPEDTAVYYCAARRHGRVDYSQGSRESDYWGQGTQVTVSS | high polyreactivity
QVQLVESGGGLVQAGGSLRLSCAASGRTFYHYAMGWYRQAPGKERELVAAITGSGGSTSYADSVKGRFTISRDNAKNTVYLQMNTLKPEDTAVYYCAAVQFPTPLLLYDSWGQGTQVTVSS | low polyreactivity
QVQLVESGGGLVHAGGSLRLSCAASGRILVDYAMGWYRQAPGKERELVAAITSTGGTTYYADSVKGRFTISRDNAKNTVYLQMNSLKPEDTAVYYCAAKRQDSWGGTYGYWGQGTQVTVSS | low polyreactivity
QVQLVESGGGLVQAGGRLRLSCAASGLTFEYNAMGWYRQAPGKERELVASISSGGGTNYADSVKGRFTISRDNAKNTVYLQMNSLKPVDTAVYYCATDNYDWSCWAFRGYWYDYWGQGTQVTVSS | low polyreactivity
QVQLVESGGGLVQAGGSLRLSCAASGRIFRYNAMGWYRQAPGKETELVAVFSGSGGSTYYADSVKGRFTISRDNAKHTVYVQMNSLKPEDTAVYYCAAQFHVSWYNYWGQGTQVTVSS | low polyreactivity
